Source: paper PMC12218921, “An adaptive peptide-binding site in ubiquitin receptor hRpn13 revealed by structural studies” (Nature Communications, 2025)

Molecular target: T1, hRpn13_ΔMTT (Homo sapiens, UniProt Q16186)
T1 construct: recombinant plasmid of hRpn13 Pru (1–150) cloned into the pRSET vector; GST (N, cleaved yes); residual Gly-Ser (^cG-^dS) left after cleavage; made in house; host or cells: Escherichia coli BL21 (DE3); pGEX-4T-1 plasmid synthesized by GenScript (Addgene 237412)
Experiment: 1H-15N HSQC NMR, K48-diUb constructs with hRpn13_ΔMTT
Type: binding
Description: To test further whether peptide binding can influence hRpn13 Pru interaction with ubiquitin, we generated K48-linked diubiquitin in which the distal moiety (linked via G76) is extended by a 6-residue linker sequence of GSGGSG followed by either the ENT (K48-diUb^ENT) or EDGEGEE (K48-diUb^EDGEGEE) sequence. Varying concentrations of K48-diUb^ENT, K48-diUb^EDGEGEE, or K48-diUb^D77 were added to 100 μM ^15N-labeled hRpn13_ΔMTT and effects on hRpn13 monitored by recording ^1H-^15N HSQC spectra.
K48-diUb samples were produced by using a similar method as previously described. Briefly, Ub-D77 (proximal), Ub-ENT (proximal), Ub-EDGEGEE (proximal) and Ub-K48R (distal) were added at a final concentration of 0.8 mM to a reaction buffer (50 mM Tris pH 8.0, 5 mM MgCl2, 10 mM creatine phosphate, 0.6 U/mL inorg. PPase, 0.6 U/mL creatine kinase, 2 mM ATP) preincubated with 20 μM E2-25K. 0.1 μM E1 (R&D Systems) was added to this reaction system to initiate diUb synthesis, and it was left for 18 h at 37 °C. The reaction was quenched by dilution with 4 volumes of 50 mM sodium acetate (pH 4.5) and passed over a Mono S 5/50 GL column (GE Healthcare). Further purification was achieved by SEC on a HiLoad 16/600 Superdex 75 prep grade column (GE Healthcare) in buffer C.
All ^1H-^15N HSQC experiments were acquired on samples dissolved in NMR buffer (20 mM sodium phosphate, pH 6.5, 50 mM NaCl, 1 mM TCEP, 10% D2O) unless specified, in which case 2 mM DTT replaced TCEP. The samples were purified in DTT-containing buffer and then exchanged into NMR buffer by using Zeba Protein Desalting columns (Thermo Fisher Scientific). The pH was measured and adjusted to 6.5. All NMR experiments were performed at 25 °C on a Bruker Advance 600 MHz spectrometer equipped with a cryogenically cooled probe. The data were processed by NMRpipe[46] (version 11.5) and spectra visualized and analyzed with NMR-FAM-SPARKY[47] (version 3.190) by using previous chemical shift assignments[12],[23] and NMRbox[48]. The amide nitrogen and hydrogen chemical shift perturbations (CSP) were mapped for each amino acid according to Eq. 1.1 CSP=0.2ΔδN2+ΔδH2
Supplementary Figure 13: NMR experiments of hRpn13 Pru binding to K48-diUb^EDGEGEE, K48-diUb^ENT or K48-diUb^D77. a) ^1H-^15N HSQC spectrum of 0.1 mM ^15N-labeled hRpn13_ΔMTT alone (black) or with equimolar K48-diUb^EDGEGEE (blue), K48-diUb^ENT (red) or K48-diUb^D77 (green). Select residues are labeled. The spectra were acquired on a 600 MHz spectrometer equipped with a cryogenically cooled probe and at 25°C samples with samples dissolved in 20 mM sodium phosphate, pH 6.5, 100 mM NaCl, 1 mM TCEP, 10% D2O.

T1 sequence (Q16186 4-150, stated change not applied): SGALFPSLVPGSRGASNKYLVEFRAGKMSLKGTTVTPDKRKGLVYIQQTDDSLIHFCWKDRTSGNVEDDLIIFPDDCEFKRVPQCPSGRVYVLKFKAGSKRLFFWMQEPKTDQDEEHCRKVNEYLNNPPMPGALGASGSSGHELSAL

K48-diUb^EDGEGEE: K48-linked diubiquitin extended by linker GSGGSG followed by EDGEGEE
bound state hRpn13 F76 signal (100 μM 15N-hRpn13_ΔMTT): A bound state hRpn13 signal was only observed for K48-diUb^EDGEGEE | strength of complex with hRpn13 (HSQC) (100 μM 15N-hRpn13_ΔMTT): stronger complex with hRpn13 compared to K48-diUb^ENT or K48-diUb^D77 | ubiquitin contact surface binding (HSQC) (100 μM 15N-hRpn13_ΔMTT, varying K48-diUb concentrations): binding to ubiquitin was observed | hRpn13 D78, A100, and G101 signal shifting compared to K48-diUb^D77 (sub-stoichiometric K48-diUb concentrations): more pronounced shifting at sub-stoichiometric concentrations
